In the nanobody polyreactivity screen of Harvey et al. (2022):

Experiment: yeast display, Sf9 membrane polyspecificity reagent, FACS + sequencing; frameworks hold sequencing errors
Procedure, shortened: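 Galactose induction of a Saccharomyces cerevisiae BJ5465 synthetic nanobody display library ran 36–48 hours. The cells were then stained for 1 hour at 4 °C with 10% biotinylated, detergent-solubilized Sf9 membrane reagent, pulled down on streptavidin microbeads and FACS-sorted into low and high (top ~1%) gates on expression and reagent-binding fluorescence. Labels for polyreactivity follow the gate of origin.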

Sequence	polyreactivity (PSR sort gate)
QVQLVESGGGLVQAGGSLRLSCAASGRIFVRNTMGWYRQAPGKERELVAAINSGGSTYYADSVKGRFTISRDNENNTVYLQMNSLKPEDTAVYYCAGQFYLFYEYDYWGQGTQVTVSS	high polyreactivity
QVQLVESGGGLVQAGGSLRLSCAASGITFKDYAMGWYRQATGKERELVAVISYSGGSTYYADSVKGRFTISRDNAKNTVYLQMNSLKPEDTAVYYCAARVGPEYDWGQGTQVTVSS	low polyreactivity
QVQLVESGGGLVQAGGSLRLSCAASGRTFTNNAMGWYRQAPGKERELVAAIRWSGGSTYYADSVKGRFTISRDNAKNTVYLQMNSLKPEDTAVYYCAKGYGYVEAVIVQYDYWGQGTQVTVSS	low polyreactivity
QVQLVESGGGLVQAGGSLRLSCAASGSIFRANAMGWYRQAPGKERELVAAISYSGGSTYYADSVKGRFTISRDNAKNTVYLQMNTLKPEDTAVYYCAAEFLYASVYYSYWGQGTQVTVSS	high polyreactivity
QVQLVESGGRLVQAGGSLRLSCASSGRTFYPYVMGWYRQAPGKERELVAAISSGTSTYYADSVKGRFTISRDNAKNTVYLQMNSLKPEDTAVYYCAVRVYTYVLYDFWGQGTQVTVSS	high polyreactivity
QVQLVESGGGLVQAGGSLRLSCAASGFTIGANTMGWYRQAPGKERELVAAISASGGSTYYADSVKGRFTISRDNAKNTVYLQMNSLKPEDTAVYYCAARRYPGRTATYYSWGQGTQVTVSS	high polyreactivity
QVQLVESGGGLVQAGGSLRLSCAASGRIFFKYAMGWYRQAPGKERELVAAISKTGGRTYYADSVKGRFTISRDNAKNTVYLQMNSLKPEDTAVYYCRGYTSFGYDYWGQGTQVTVSS	high polyreactivity
QVQLVESGGGLVQAGGSLRLSCAASGRTFFGYAMGWYRQAPGKERELVAAISSRGDSTYYADSVKGRFTISRDNAKNTVYLQMNSLKPEDTAVYYCNTYSTVYSYDYDYWGQGTQVTVSS	low polyreactivity
QVQLVESGGGLVQAGGSLRLSCAASGSTFAYNTMGWYRQAPGKDRELVAAISQRGGSTYADSVKGRFTISRDNAKNTVYLQMNSLKPEDNAVYYCAADGYTYKFDYWGQGTQVTVSS	low polyreactivity
QVQLVESGGGLVQAGRSLRLSCAASGSIFRIYAMGWYGQAPGKERELVAAITWSGGGTYYADSVKGRFTNSRDNAKNTVYLQMYSLKPEDTAVYYCAADYWGYDIYYGLSERESWGQGTQVTVSS	high polyreactivity
QVQLVESGGGLVQAGGSLRLSCAASGRTFATNAMGWYSQAPGKERELVAGINGSGSTNYADSVKGRFTISRDNAKNTVYLQMNSLKPEDTAVYYCAAYVGLYYRLHYYYWGQGTQVTVSS	low polyreactivity
QVQLVESGGGLVQAGGSLRLSCAPSGYTYSDYAMGWYRQAPAKERELVAGITGGGGTYYADSVKGRFTISRDNAKNTVYLQMNSLKPEDTAVYYCAAGRRHGFGYWGQGTQVTVSS	low polyreactivity
QVQLVESGGGIVQAGGSLRLTCAASGYIFYSYAMGWYRHAPGKERELVATISSGGSTYYADSVKGRFTISRDNAKNTVYFQMNSLKPEDTAVYYCATDHDIVYNFNRYDYWGQGTQVTVSS	low polyreactivity
QVQLVESVGGLVQAGGSLSLSCAASGSTLSDNAMGWYRQAPGKERELVAAIRRVGSTNYADSVKGRFTISRDNAKNTVYLQMNSLKPEDTAVYYCAVRHVWPWQGYDYWGQGTQVTVSS	low polyreactivity
QVQLVESGGGLVQAGGSLRLSCAPSGFIFNRNTMGWYRQAPGKERELVAAISFRGTSTYYADSVKGRFTISRDNAKNTVYLQMNSLKPEDTAVYYCNRARILVWSKYGYWGQGTQVNVSS	high polyreactivity
QVQLVESGGGLVQAGGSLRLSCAASVRIFGYNAMGWSRQAPGKERYLVAAITTSGGSTYYADSVKGRFTISRDNAKNTVYLQMNSLKPEDTAVYYCARDSLQVFYPYASDDYWGQGTQVTVSS	low polyreactivity
QVQLVESGGGLVQAGGILRLSCAASGSTFTSYAMGWYRQAPGKERELVAAISKSGGSTYYADSVKGRFTISRDNAKNTVYLQMNSLKPEDTALYYCAARYNVRSYSTSRFYYWGQGTLVTVSS	low polyreactivity
QVQHVESGGGLVQAGGSLRLSSAASGFTFSRNAMGWYRQAPGKERELVAAIDSGGSTDYADSVKGRFTISRDNAKNTVYLQMNSLKPEDTAVYYCNVDGYYLFVRGYEYWGQGTQLTVSS	low polyreactivity
QVQLVESGGGLVQAGGSLRLSCAASGSTFRDYAMGWYRQAPGTERELVAAITSGGSTNYADSVKGRFTISRDNAKNSVYLQMISLKPEDTAVYYCNARYAGWYTPWGRQSVYSDDYWGQGTQVTVSS	low polyreactivity
QVQLVESGGGLVQAGGSLRLRCAASGRNFGDNRMGWYRQAPGKERELVTYAYSVKGRFTISRDNAKNTVYLQMNSLKPEDTSVYYCNTDPQRFSGLDENYWGQGTQVTVSS	low polyreactivity
QVQLVESGGGLVQAGGSLRLSCAASGRTFGYYAMGWYRQAPGQERELVAAISSGGGTYYADSVKGRFTISRDNAKNTVYVQMNSLKPEDTAVYYCAATGWVYWGQFDYWGEGTQVTVSS	low polyreactivity
QVQLVETGGGLVQAGGSLRLSCAASGGSFTYNALGWDRQSPGKERALVAAITDSGGSTFADSVKGRFTISRDIAKNNVYLQMNSLKPEDTAVYYCAAGDGDTGSMYLRKLSDYWGQGTQVTVSS	low polyreactivity

Sequence	polyreactivity (PSR sort gate)
QVQLVESGGGLDQAGGSLRLSCAASGSIFESYAMGWYRQAPGKERELVAAITKRGGSTYYADSVKGRFTISRDNAKNTVYLQMNRLKPEDTAVYYCNASWPGIGPIYDYWGQGTQVTVSS	low polyreactivity
QVQLVESGGGLVQAGGSLRLSCAASGSTFEYNAMGWYRQAPGKERELVASSTNYADSVKGRFTISLDNAKNTVYLQMNSLKPEDTAVYYCAREQGVNRNHDYWGQGTQVNVSS	low polyreactivity
QVQLVESGGGLVQAGGSLRLSCAASGRTLARNAMGWYRQAPGKERELVASINGRTTRTYYADSVKGRFTISRDNAKNTVYLQMNSLKPADTAVYYCAAAVRYRKYNYWGQGTQVTVSS	high polyreactivity
HVQLVESAGGLVQAGGSLRLSCAASGRIFAVYAMGWYRQAPGKERELVAAISYIGGSTYYADSVKGRFTISRDNAKNTVYLQMNSLKPEDTAVYYCNKDIPKRQYVVYRTAYEYDYWGQGTQVSVSS	low polyreactivity
QVQLVESGGGLVQAGGSRRLSCAASGSTFQYNAMGWYRQAPGKDREWVAAITGSGGSTYYADSVKGRFTISRDNSKNTVYLQMNSLKPEDTAVYYCAKRVRSFNWVLARHKYDYWGQGTQVTVSS	low polyreactivity
QVQLVESGGGLVQAGGSLRLSCAASGRIFARNAMGWYRQAPGKESELVAAITSSGSTYYADSVKGRFTISRDNAKNSVYLQMNSLKPEDTAVYYCAADGHAYRSNFWGQGTQVTVSS	low polyreactivity
QVQLVESGGGLVQAGGILRLSCAASGFIFEYYAMGWYRQAPGKERELVAAINGGGGNTYYADSVKGRFTISRDNAKNTVYLQMNSLKPEDTAVYYCNAKRRKYRYDYWGQGTQVTVSS	high polyreactivity
QVQLVESRGGLVQAGGSLRLSCAASGFTFSAYAMGWYRQAPGKERELVAAISWSGSRTYYADSVKGRFTISRDNAKNTVYLQMNSQKPEDTAVYYCAKEPYDTFGFYDYDYWGQGTQVTVSS	low polyreactivity
QVQLVESGGGLVQAGGSLRLTCAASGFIFNYNTMGWYRQAPGKERELVAGINWSGTRTYYADSVKGRFTISRDNAKNTDYLQMNSLKPEDTAVYYCNAYTQQYRSYGYWGQGTQVTVSS	high polyreactivity
QVQLVESGGCLVQAGGSLRLSCAASGSTFPRYAMGWYRQAPGKERELVATINSGGSTYYADSVKGCFTISRDNAKNTVYLQMNSLKPEDTAVYYCAAGYRWTYTSGTYIRYNYWGQGTQVTVSS	high polyreactivity
QVQLVESGGGLVQAGGSLRLSCAASGIIFFIYAMGWYRQAPGKERELVATISWTGGSTYYADSVKGRFTISRDNAKNTVYLQMNSLKPEDTAVYYCNADEWRWDEIIPYAVDYWGQGTQVTVSS	low polyreactivity
QVQLVESGGGLVQAGGSLRLSCAASGRTFVENAMGWYRQAPGKERELVAAITYRGGRTFYADSVKGRFTISRDNAKNTVYLQMNSLKPEDTAVYYCNAVRRTGGHGDYWGQGTQVTVSS	high polyreactivity
QVQLVESGGGLVQAGGSLRLSCAASGRTFRRTAMGWYRQAPGKERELVAAISSRGGSTYYADSVKWRFTISRDNAKNTVYLQMNSLKPEDTAVYYCNRVLTPIWYYVPLYSQPTYYYWGQGTQVTVSS	high polyreactivity
QVQLVESGGGLVQAGGSLRLSCAASGRIFVIYAMGWYRQAPGTERELVAAITARGSNTYYADSVKGRFTISRDNAKNTVYLQMNSLKPEDTAVYYCNAEARSYRYPYNYWGQGTQVTVSS	high polyreactivity
QVQLVESGGGLVQAGGSHRLSCAASGSIFIRYAMGWYRQAPAKERELVASITSGGSTYYADSVKGRFTISRDNEKNTVYLQMNSLKPEDTSVYYCNALPYRYRRYDYWGQGTQVTVSS	low polyreactivity
QVQIVESGGGLVQAGGSLRLSCAASGFTFWNYAMGWYRQAPGKERELVATITRSGGRTYYADSVKGRFTISRDHAKNTGYLQMNSLIPEDTAVYYCSARVWPVVYSWGYNYLGQGTQVTVSS	high polyreactivity
QVQLVESGGGLVQAGGSLRLSCAASGFIFARNTMGWYRQAPGKERELVAAITKSGGSTYYADSVKGRFTISRDNAKNTVYLQMNSLKPEDTAVYYCAARTYTLRGVYFSGYNYWGQGTQVTVSS	low polyreactivity
QVQLVESGGGLVQAGGSLRLICAASGSIFVLNAMGWYRQAPGKERELVAAITSGGSTYYADSVKGRFTISRDNAKNTVYLQMISLKPEDTAVYYCNALDLSPSYKYDYWGQGTQVTVSS	low polyreactivity
QVQLVESGGGLVQAGGSLRLSCAASGSIFRYNAMGWYRKAPGKERELVAAISYRGGSTYYADSVKGRFTISRDNAKITVYLQINSLKPEDTAVYYCAAAVQYSGYRFNYWGQGTQVTVSS	high polyreactivity
QVQLVESGGGLVQAGGSLRLSCAASGFIFVDNAMGWYRQAPGKERELVAAITYRGGSTYYADSVKGRFTISRDNAKNTVYLQMNSLKPEVTAVYYCNADYGDTFEYDYWGQGTQVTVSS	low polyreactivity
QVQLVESGGGLVQAGGSLRLSCAASGRIFDYYAMGWYRQAPGKERELVAVISRGGRTKYADSVKGRFTISRDNAKNTVYLQMNSLKPEDTAVFYCAAYPSYYGDSGLRYDYWGQGTQVTVSS	high polyreactivity
